From publication PMC5347793, “Transcription factor LSF-DNMT1 complex dissociation by FQI1 leads to aberrant DNA methylation and gene expression” (Oncotarget, 2016)

B1: MBP-LSF fusion protein (purified full-length LSF) (natural protein, human, UniProt Q12800 1-502, looked up)
chain: MAWALKLPLADEVIESGLVQDFDASLSGIGQELGAGAYSMSDVLALPIFKQEESSLPPDNENKILPFQYVLCAATSPAVKLHDETLTYLNQGQSYEIRMLDNRKLGELPEINGKLVKSIFRVVFHDRRLQYTEHQQLEGWRWNRPGDRILDIDIPMSVGIIDPRANPTQLNTVEFLWDPAKRTSVFIQVHCISTEFTMRKHGGEKGVPFRVQIDTFKENENGEYTEHLHSASCQIKVFKPKGADRKQKTDREKMEKRTPHEKEKYQPSYETTILTECSPWPEITYVNNSPSPGFNSSHSSFSLGEGNGSPNHQPEPPPPVTDNLLPTTTPQEAQQWLHRNRFSTFTRLFTNFSGADLLKLTRDDVIQICGPADGIRLFNALKGRMVRPRLTIYVCQESLQLREQQQQQQQQQQKHEDGDSNGTFFVYHAIYLEELTAVELTEKIAQLFSISPCQISQIYKQGPTGIHVLISDEMIQNFQEEACFILDTMKAETNDSYHIILK
B2: GST-DNMT1 (amino acids 1-446) (domain or fragment, human, UniProt P26358 1-446, looked up)
chain: MPARTAPARVPTLAVPAISLPDDVRRRLKDLERDSLTEKECVKEKLNLLHEFLQTEIKNQLCDLETKLRKEELSEEGYLAKVKSLLNKDLSLENGAHAYNREVNGRLENGNQARSEARRVGMADANSPPKPLSKPRTPRRSKSDGEAKPEPSPSPRITRKSTRQTTITSHFAKGPAKRKPQEESERAKSDESIKEEDKDQDEKRRRVTSRERVARPLPAEEPERAKSGTRTEKEEERDEKEEKRLRSQTKEPTPKQKLKEEPDREARAGVQADEDEDGDEKDEKKHRSQPKDLAAKRRPEEKEPEKVNPQISDEKDEDEKEEKRRKTTPKEPTEKKMARAKTVMNSKTHPPKCIQCGQYLDDPDLKYGQHPPDAVDEPQMLTNEKLSIFDANESGFESYEALPQHKLTCFSVYCKHGHLCPIDTGLIEKNIELFFSGSAKPIYDDD
B3: GST-LSF (amino acids 65-259), DNA binding domain (domain or fragment, human, UniProt Q12800 65-259, looked up)
chain: LPFQYVLCAATSPAVKLHDETLTYLNQGQSYEIRMLDNRKLGELPEINGKLVKSIFRVVFHDRRLQYTEHQQLEGWRWNRPGDRILDIDIPMSVGIIDPRANPTQLNTVEFLWDPAKRTSVFIQVHCISTEFTMRKHGGEKGVPFRVQIDTFKENENGEYTEHLHSASCQIKVFKPKGADRKQKTDREKMEKRTP
notes: Cloned into pGEX-5X-1; also called LSF65-259; source: E. coli, captured on Glutathione Sepharose beads
B4: GST-DNMT1 (amino acids 431-836) (domain or fragment, human, UniProt P26358 431-836, looked up)
chain: IELFFSGSAKPIYDDDPSLEGGVNGKNLGPINEWWITGFDGGEKALIGFSTSFAEYILMDPSPEYAPIFGLMQEKIYISKIVVEFLQSNSDSTYEDLINKIETTVPPSGLNLNRFTEDSLLRHAQFVVEQVESYDEAGDSDEQPIFLTPCMRDLIKLAGVTLGQRRAQARRQTIRHSTREKDRGPTKATTTKLVYQIFDTFFAEQIEKDDREDKENAFKRRRCGVCEVCQQPECGKCKACKDMVKFGGSGRSKQACQERRCPNMAMKEADDDEEVDDNIPEMPSPKKMHQGKKKKQNKNRISWVGEAVKTDGKKSYYKKVCIDAETLEVGDCVSVIPDDSSKPLYLARVTALWEDSSNGQMFHAHWFCAGTDTVLGATSDPLELFLVDECEDMQLSYIHSKVKVIY

What was measured:
[1] = target: T1, purified full-length DNMT1 (recombinant, baculovirus expressed) (human, UniProt P26358 1-1616); test: cell-based or functional assay
[2] = target: B1; test: pull-down; GST-DNMT1 fusions on beads incubated with 1 ug purified MBP-LSF; immunoblot with anti-LSF; details: both partners purified
[3] = target: T1, purified full-length DNMT1 …; test: pull-down; as a4, in the presence of 2.5 uM FQI1; details: both partners purified

| binding result [2] | Binder | also measured |
| --- | --- | --- |
| – | B1 | DNA methyltransferase activity of purified DNMT1 (80 nM) with His-LSF recombinant protein, molar ratio of His-LSF to DNMT1 from 2:1 to 4:1 [1]: ~2 fold |
| binds | B2 | – |
| – | B3 | binding result [3]: binds |
| binds | B4 | – |
